From patent publication US20240376189A1 (University of Pennsylvania, published 2024)
Numbering of substitutions follows the chain as printed. Numbers in names are those of the source.

T1: human C5a (human, UniProt P01031 678-751, biotinylated in the U937/C5aR ligand blocking assay (site not stated))
T1 construct: also called human antigen; huC5a
T1 sequence: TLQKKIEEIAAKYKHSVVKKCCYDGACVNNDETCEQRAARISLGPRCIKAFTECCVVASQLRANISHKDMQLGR

B1: E54H (humanized anti-C5a IgG4 antibody) (antibody, V domains shown)
VH: QVQLVQSGAEVKKPGSSVKVSCKASGYTHTDHIIHWMRQAPGQGLEWMGYIYPRHGWTNYNENFKGRVTITADKSTSTAYMELSSLRSEDTAVYYCARERNLEYFDYWGQGTTVTVSS
VL: DIVLTQSPASLAVSPGQRATITCKASQSVDYEGFNYMNWYQQKPGQPPKLLIYAASNLDSGVPARFSGSGSGTDFTLTINPVEAEDTANYYCQQSNEDPHTFGGGTKVEIKR
notes: Carries F29H and E54H in VH and Y96H in VL (Kabat) relative to 16D10
B2: 13B7 (scFv, V domains shown)
VH: B1 VH with H29F, H55E
VL: DIVLTQSPASLAVSPGQRATITCKASQSVDYEGFNYMNWYQQKPGQPPKLLIYAASNLDSGVPARFSGSGSGTDFTLTINPVEAEDTANYYCQQSVEDPHTFGGGTKVEIK
notes: Combination mutant scFv
B3: 18F5 (scFv, V domains shown)
VH: B1 VH with H29F, H55E, W57F
VL: B2 VL with Y31F
notes: Combination mutant scFv
B4: 16D10 scFv (scFv, V domains shown)
VH: B1 VH with H29F, H55E
VL: B2 VL with V96N, H100Y
B5: 13B9 (scFv, V domains shown)
VH: B1 VH with H29F, H55E
VL: B2 VL with Y31F, V96N
notes: Combination mutant scFv
B6: 16F10 (scFv, V domains shown)
VH: B1 VH with H29F, H55E
VL: B2 VL with Y31F
notes: Combination mutant scFv
B7: 10F5 (scFv, V domains shown)
VH: B1 VH with H29F, H55E
VL: B2 VL with F34D, A55T, V96L
notes: Combination mutant scFv
B8: 17D2 (scFv, V domains shown)
VH: B1 VH with H29F, H55E
VL: B2 VL with Y31F, F34D, A55T
notes: Combination mutant scFv
B9: 16C2 (scFv, V domains shown)
VH: B1 VH with H29F, H55E
VL: B2 VL with A55T
notes: Combination mutant scFv
B10: 8H8 (scFv, V domains shown)
VH: B1 VH with H29F, H55E
VL: B2 VL with A55T, V96L
notes: Combination mutant scFv
B11: 11A11 (scFv, V domains shown)
VH: B1 VH with H29F, H55E
VL: B2 VL with Y31F, A55T
notes: Combination mutant scFv
B12: 2H8E10 (scFv, V domains shown)
VH: B1 VH with H29F, H55E
VL: B2 VL with F34D, V96N
notes: Combination mutant scFv
B13: 5G11 (scFv, V domains shown)
VH: B1 VH with H29F, H55E
VL: B2 VL with V96L
notes: Combination mutant scFv
B14: 19D2 (scFv, V domains shown)
VH: B1 VH with H29F, H55E
VL: B2 VL with Y31F, F34D, A55T, V96L
notes: Combination mutant scFv
B15: 18D3 (scFv, V domains shown)
VH: B1 VH with H29F, H55E
VL: B2 VL with F34D, A55T
notes: Combination mutant scFv
B16: 8C1 (scFv, V domains shown)
VH: B1 VH with H29F, H55E
VL: B2 VL with Y31F, V96L
notes: Combination mutant scFv

molecular target: T2, human C5 (human, UniProt P01031 19-673; P01031 678-1676, limits assumed); experiment: ELISA, affinity for human C5 against affinity for human C5a
T2 construct: In the sheep RBC lysis assay, C5 is the C5 of normal human serum; also called huC5

| Binder | Fold affinity (C5/C5a) [fold] |
| --- | --- |
| B1 | 5.6 |

molecular target: T3, cynomolgus antigen (cynomolgus); experiment: affinity-ranking ELISA: cynomolgus antigen coated on the plate, normalized scFv periplasmic extract in 3-fold dilutions from 100 nM, anti-c-myc-HRP, OD450
T3 construct: also called cyno antigen; cynomolgus monkey C5a
Experimental: The affinity ranking ELISA was carried out as following: scFv concentrations in PEs were measured by Quantification ELISA using purified scFv sample as a standard. Briefly, anti-His-antibody (Genscript-A00186) were coated on the plates in coating buffer PBS at pH7.4 overnight at 4° C. The next day, plates were blocked with casein in PBS at pH7.4 for 1 hour at 25° C. ScFv containing PEs were diluted 3 fold serial dilutions and then added to the plates. A purified scFv standard sample with known concentration was used as a standard. After incubation at 25° C. for 1 hour and washing 3 times with PBS-T, anti-c-myc-HRP (Bethyl-A190-104P) was added to the wells followed by incubation for 1 hour at 25° C. HRP activity was detected with TMB substrate and the reaction was quenched with 2M HCl. Plates were read at 450 nm.
The next day, plates were blocked with casein in PBS for 1 hour at 25° C. Normalized scFv containing PEs were diluted using 3 fold serial dilutions starting at 100 nM, added to the plates and incubated at 25° C. for 1 hour. After washing, anti-c-myc-HRP was added to the wells followed by incubation for 1 hour at 25° C. HRP activity was detected with TMB substrate and the reaction was quenched with 2M HCl. Plates were read at 450 nm. Data were fitted into one-site binding equation using GraphPad Prism 5 software.

| Binder | EC50 (read off the curve) [nM] |
| --- | --- |
| B2 | ~6 |
| B3 | ~8 |
| B4 | ~20 |
| B5 | ~10 |
| B6 | ~4 |

molecular target: T1, human C5a; experiment: ligand blocking, flow cytometry: antibody titrated against 20 nM biotinylated human C5a binding to U937/C5aR cells, Experiment #1
Experimental: (§1) U937/C5aR cells were washed twice by PBS and suspended in assay buffer (PBS+0.1% BSA) at the density of 3×10⁶ cells/ml. […] 1000 rpm centrifuge for 3-5 min at 4° C., remove supernatant and cells were washed by pre-cold PBS twice. Add 100 μl FITC conjugated streptavidin (eBioscience) to cells and incubate on ice for another 30 min. Centrifuge at 4° C., remove supernatant and cells were washed by pre-cold PBS twice. Add 150 μl 0.5% PFA to suspend cells and detect the signal by FACS (Beckman, Cytoflex). IC₅₀ value was calculated by GraphPad Prism software.
(§2) Mean fluorescence intensities were measured at each antibody concentration. U937 cells without addition of antibodies was used as the low control.

| Binder | IC50 [nM] |
| --- | --- |
| B1 | 2.57 |

molecular target: T1, human C5a; experiment: ELISA, antibody titrated on C5a-coated plate

| Binder | affinity determined by ELISA, huC5a [nM] |
| --- | --- |
| B1 | 0.336 |

molecular target: T1, human C5a; experiment: ligand blocking, flow cytometry: antibody titrated against 20 nM biotinylated human C5a binding to U937/C5aR cells, Experiment #2
Experimental: as §1, §2

| Binder | IC50 [nM] |
| --- | --- |
| B1 | 6.53 |

molecular target: T3, cynomolgus antigen; experiment: SPR, scFv captured via anti-c-myc/anti-His, 60 nM cynomolgus antigen as analyte, 1:1 fit
Experimental: The activator was prepared by mixing 400 mM EDC (1-ethyl-3-(3-dimethylaminopropyl) carbodiimide) and 100 mM NHS (N-hydroxysuccinimide) (GE) immediately prior to injection. The CMS sensor chip was activated for 600 s with the mixture at a flow rate of 10 μL/min. Mixture of anti-c-myc and anti his antibodies in 10 mM NaAc (pH 4.5) was then injected to Fc1 and Fc2 of channel 1 to channel 8 for 600 seconds at a flow rate of 10 μL/min. The chip was deactivated by 1 M ethanolamine-HCl (GE) at a flow rate of 10 μL/min for 420 seconds.
The anti-C5a scFv was diluted to 0.5 μg/ml, the other samples were diluted to 2 μg/ml in running buffer 1×HBS-EP+ (0.01 M HEPES, 0.15 M NaCl, 0.003 M EDTA, 0.05% surfactant P20). […] Diluted TES buffer was injected into channel Fc1 at a flow rate of 10 μL/min for 40 s, diluted scFv was injected into channel Fc2 at a flow rate of 10 μL/min for 40 s. […] 10 mM glycine pH 1.5 as regeneration buffer was injected following every dissociation phase. The chip was regenerated with 10 mM glycine pH 1.5.
The sensorgrams for reference channel Fc1 and buffer channel were subtracted from the test sensorgrams. Data were fitted by 1:1 kinetic binding model. Molecular weight of 8.4 kDa was used to calculate the molar concentration of the cyno antigen.

| Binder | koff [s⁻¹] |
| --- | --- |
| B2 | 0.000252 |
| B3 | 0.000319 |
| B7 | 0.00202 |
| B8 | 0.0019 |
| B9 | 0.00176 |
| B4 | 0.000465 |
| B10 | 0.000927 |
| B11 | 0.000786 |
| B12 | 0.00258 |
| B13 | 0.000279 |
| B5 | 0.000327 |
| B6 | 0.000155 |
| B14 | 0.00102 |
| B15 | 0.00418 |
| B16 | 0.000481 |

molecular target: T2, human C5; experiment: ELISA, antibody titrated on C5-coated plate
Excerpt: The anti-C5a constructs were further tested for their affinities to human C5 using ELISA. Off-target C5 binding reduces availability of anti-C5a antibodies (C5-mediated “sink effect”). […] Each data point was the mean of 2 replicates.

| Binder | affinity determined by ELISA, huC5 [nM] |
| --- | --- |
| B1 | 0.0601 |

molecular target: T1, human C5a; experiment: cell-based or functional assay

| Binder | Inhibition of cell migration IC50 (nM), U937-C5aR cells [nM] |
| --- | --- |
| B1 | 0.076 |

molecular target: T2, human C5; experiment: BLI (Gator), antibody on anti-human IgG Fc probes, 40 nM human C5 bound 600 s at pH 7.4, 600 s dissociation at pH 5.8
Experimental: (§3) pH dependency of the humanized anti-C5a constructs were tested using C5 binding assays. A Biolayer interferometry instrument, Gator™ (Probe life Inc., USA) was used to determine pH dependent dissociation of histidine mutants and the benchmark antibodies. Briefly, anti-human IgG Fc (FHC) Probes were equilibrated in the kinetic (K) buffer of Phosphate-buffered saline containing 0.02% bovine serum albumin and 0.002% Tween20 pH 7.4. Antibodies were captured onto the sensors by dipping them into 200 μL of transfection supernatant for 600 s at pH 7.4. The biosensors were then incubated with human C5 prepared in the K buffer pH 7.4 (40 nM) for 600s followed by 600-second dissociation period in K Buffer, pH 7.4 or pH 5.8. The data were processed and analyzed by the Gator evaluation software.

| Binder | Dissociation pH 5.8 (%) |
| --- | --- |
| B1 | 60.8 |

molecular target: T2, human C5; experiment: BLI (Gator), percentage dissociation from human C5 at pH 5.8 over pH 7.4
Experimental: as §3

| Binder | Ratio between dissociation at pH 5.8 and 7.4 |
| --- | --- |
| B1 | 11.3 |

molecular target: T1, human C5a; experiment: SPR, scFv captured via anti-c-myc/anti-His, 5 nM human antigen as analyte, 1:1 fit

| Binder | koff [s⁻¹] |
| --- | --- |
| B2 | < 1e-05 |
| B3 | 3.03e-05 |
| B7 | < 1e-05 |
| B8 | 1.89e-05 |
| B9 | 2.58e-05 |
| B4 | 2.34e-05 |
| B10 | 2.69e-05 |
| B11 | < 1e-05 |
| B12 | 1.82e-05 |
| B13 | < 1e-05 |
| B5 | 2.2e-05 |
| B6 | 1.14e-05 |
| B14 | < 1e-05 |
| B15 | 2.98e-05 |
| B16 | < 1e-05 |

molecular target: T2, human C5; experiment: BLI (Gator), antibody on anti-human IgG Fc probes, 40 nM human C5 bound 600 s at pH 7.4, 600 s dissociation at pH 7.4
Experimental: as §3

| Binder | Dissociation pH 7.4 (%) |
| --- | --- |
| B1 | 5.39 |

molecular target: T1, human C5a; experiment: cell-based or functional assay; remark: another data set of the same source

| Binder | Inhibition of calcium influx IC50 (nM), FLIPR, Experiment #1 [nM] | Inhibition of calcium influx IC50 (nM), FLIPR, Experiment #2 [nM] |
| --- | --- | --- |
| B1 | 0.136 | 0.154 |
